# Experimental data published in paper PMC7019167, “Development of a high affinity Anticalin® directed against human CD98hc for theranostic applications” (Theranostics, 2020).
# Where a chain is given by its changes, count along the chain named.
# B1: lipocalin variant (Anticalin) P3D11 (designed binder)
# chain: QDSTSDLIPAPPLSKVPLQQNFQDNQFHGKWYVVGRAGNTGLREDKDPGKMFATIYELKEDKSYNVTYVWFGQKKCMYSIGTFVPGSQPGEFTLGNIKSAPGRTSWLVRVVSTNYNQHAMVFFKSVTQNREGFAITLYGRTKELTSELKENFIRFSKSLGLPENHIVFPVPIDQCIDG
# notes: source: E. coli JM83, periplasmic extract, purified (IMAC, SEC)
# B2: Anticalin D11vs (P3D11 with Phe71Ser and Gly81Val) (designed binder)
# chain: B1 chain with F71S, G81V
# notes: source: E. coli, soluble protein at preparative scale, purified
# B3: lipocalin variant (Anticalin) P1E4 (designed binder)
# chain: QDSTSDLIPAPPLSKVPLQQNFQDNQFHGKWYVVGIAGNSMLREDKDPFKMTATIYELKEDKSYNVTRVRFDDKKCLYRILTFVPGSQPGEFTLGNIKSRPGWTSWLVRVVSTNYNQHAMVFFKRVHQNRETFWITLYGRTKELTSELKENFIRFSKSLGLPENHIVFPVPIDQCIDG
# notes: as for B1
# Legend:
# [1] = molecular target: T1, glycosylated human CD98hc ectodomain (hCD98hcEDg), monobiotinylated (human, UniProt P08195-2 111-529, single biotin group on the biotin acceptor peptide (BirA co-expressed); N-glycosylated); assay: SPR; biotinylated hCD98hcEDg immobilised (ΔRU ≈ 225) on a streptavidin-functionalized sensorchip (Biotin CAPture kit); BIAcore 2000, 25 °C, HBS-T (20 mM Hepes/NaOH pH 7.5, 150 mM NaCl, 0.005% Tween 20); single cycle kinetics, five injections of a 1:2 dilution series of the lipocalin variant; global 1:1 Langmuir fit; KD = koff/kon; details: both partners purified
# T1 construct: human CD98 heavy chain, extracellular domain, UniProt ID P08195-2, residues Glu111-Ala529; also called 4F2hc; SLC3A2; not shown: biotin acceptor peptide (BAP), N-terminal, kept
# T1 sequence (looked up): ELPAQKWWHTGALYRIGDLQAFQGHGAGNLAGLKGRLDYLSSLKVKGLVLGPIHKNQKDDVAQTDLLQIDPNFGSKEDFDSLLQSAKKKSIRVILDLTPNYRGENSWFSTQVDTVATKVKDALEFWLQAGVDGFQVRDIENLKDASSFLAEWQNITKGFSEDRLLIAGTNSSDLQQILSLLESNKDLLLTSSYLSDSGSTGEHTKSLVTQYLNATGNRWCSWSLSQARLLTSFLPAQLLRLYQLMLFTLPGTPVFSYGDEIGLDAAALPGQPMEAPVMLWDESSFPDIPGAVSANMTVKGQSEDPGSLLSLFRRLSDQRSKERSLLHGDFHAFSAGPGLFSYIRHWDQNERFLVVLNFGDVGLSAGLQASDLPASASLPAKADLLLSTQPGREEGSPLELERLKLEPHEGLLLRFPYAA
# [2] = molecular target: human CD98hc ectodomain, unglycosylated, biotinylated (hCD98hcED) (human) (UniProt P08195); assay: SPR; single cycle kinetics (five injections of a 1:2 dilution series, 3500 s dissociation); biotinylated hCD98hcED immobilised on a streptavidin sensorchip (Biotin CAPture kit), lipocalin variant as analyte; 25 °C, HBS-T; global 1:1 Langmuir fit
Binder,koff [1] [s⁻¹],kon [1] [M⁻¹ s⁻¹],Kd [1] [nM],Kd [2] [nM],koff [2] [s⁻¹],kon [2] [M⁻¹ s⁻¹],τ1/2 (complex half-life) [2] [h]
B1,5e-05,300000,–,–,–,–,–
B2,2.2e-05,460000,0.05 ± 0.003,0.06,2.6e-05,450000,7.37
B3,0.09,560000,162 ± 20.9,–,–,–,–
